B1: cr415 (nucleic acid)
guide: GTTTAAGAGCTAAGCTGGAAACAGCATAGCAAGTTTAAATAAGGCTAGTCCCTTATCAACTTGAAATAGTGGCACCGAGTCGGTGCT
modifications: listed as DNA, chemistry not fully specified
B2: cr272 (nucleic acid)
guide: B1 guide with A31C, G33C, C52G, T67A
modifications: listed as DNA, chemistry not fully specified
B3: cr883 (nucleic acid)
guide: B1 guide with A42G, C51G, C52G, T67A
modifications: listed as DNA, chemistry not fully specified
B4: cr967 (nucleic acid)
guide: B1 guide with G43C, C51G, C52G, T67A, C73A, G77A, C81T, G85T
modifications: listed as DNA, chemistry not fully specified
B5: cr778 (nucleic acid)
guide: B1 guide with C51G, C52G, T67A
modifications: listed as DNA, chemistry not fully specified
B6: cr174 (nucleic acid)
guide: B1 guide with G29C, T49G, C52G, T67A, G79T
modifications: listed as DNA, chemistry not fully specified
B7: cr706 (nucleic acid)
guide: B1 guide with T34G, C52G, T67A, C76G, G82C
modifications: listed as DNA, chemistry not fully specified
B8: cr584 (nucleic acid)
guide: B1 guide with A42T, C52T, T67A
modifications: listed as DNA, chemistry not fully specified
B9: cr518 (nucleic acid)
guide: B1 guide with G33T, A41G, C52G, T67A
modifications: listed as DNA, chemistry not fully specified
B10: cr281 (nucleic acid)
guide: B1 guide with C52G, T67A, A74T, C75G, C76G, G77C, G82C, T84A
modifications: listed as DNA, chemistry not fully specified
B11: cr100 (nucleic acid)
guide: B1 guide with A41G, T49C, C52G, T67A
modifications: listed as DNA, chemistry not fully specified
B12: cr092 (nucleic acid)
guide: B1 guide with T3G, A6G, C52G, T67A
modifications: listed as DNA, chemistry not fully specified
B13: cr463 (nucleic acid)
guide: B1 guide with G43C, C51G, C52G, A59C, T67A, T70G, G77T, C81A
modifications: listed as DNA, chemistry not fully specified
B14: cr339 (nucleic acid)
guide: B1 guide with G43C, G44C, C50G, C51G, C52G, T67A
modifications: listed as DNA, chemistry not fully specified
B15: cr499 (nucleic acid)
guide: B1 guide with G33C, C52G, T53A, T67A, T80G
modifications: listed as DNA, chemistry not fully specified
B16: cr247 (nucleic acid)
guide: B1 guide with G33T, C52G, T67A, G71A
modifications: listed as DNA, chemistry not fully specified
B17: cr376 (nucleic acid)
guide: B1 guide with G33C, C52G, T67A, C76G, G82C
modifications: listed as DNA, chemistry not fully specified
B18: cr744 (nucleic acid)
guide: B1 guide with T34A, A41C, C52G, A64T, T67A
modifications: listed as DNA, chemistry not fully specified
B19: cr615 (nucleic acid)
guide: B1 guide with C52G, T67A, G72C, C73G, A74T, C75G, T84A, C86G
modifications: listed as DNA, chemistry not fully specified
B20: cr537 (nucleic acid)
guide: B1 guide with T34C, A41T, C52G, T67A
modifications: listed as DNA, chemistry not fully specified
B21: cr902 (nucleic acid)
guide: B1 guide with C52G, T67A, G72A, C86T
modifications: listed as DNA, chemistry not fully specified
B22: cr472 (nucleic acid)
guide: B1 guide with T34G, C45T, G48A, C52G, T67A
modifications: listed as DNA, chemistry not fully specified
B23: cr352 (nucleic acid)
guide: B1 guide with C52G, A59C, T67A
modifications: listed as DNA, chemistry not fully specified
B24: cr094 (nucleic acid)
guide: B1 guide with T2A, A5T, C52G, T67A
modifications: listed as DNA, chemistry not fully specified
B25: cr266 (nucleic acid)
guide: B1 guide with A28G, T34G, T46G, C52G, T67A
modifications: listed as DNA, chemistry not fully specified
B26: cr109 (nucleic acid)
guide: B1 guide with C52G, T61A, T62A, A68T
modifications: listed as DNA, chemistry not fully specified
B27: cr057 (nucleic acid)
guide: B1 guide with T2C, T4C, C52G, T67A
modifications: listed as DNA, chemistry not fully specified
B28: cr297 (nucleic acid)
guide: B1 guide with T49G, C52G, T67A, G71C
modifications: listed as DNA, chemistry not fully specified
B29: cr833 (nucleic acid)
guide: B1 guide with A28C, G33C, C52G, T67A, G71C
modifications: listed as DNA, chemistry not fully specified
B30: cr309 (nucleic acid)
guide: B1 guide with T34G, T49G, C52G, T67A
modifications: listed as DNA, chemistry not fully specified
B31: cr660 (nucleic acid)
guide: B1 guide with G43T, C52G, T67A
modifications: listed as DNA, chemistry not fully specified
B32: cr400 (nucleic acid)
guide: B1 guide with T34G, C45A, G48T, C52G, T67A
modifications: listed as DNA, chemistry not fully specified
B33: cr845 (nucleic acid)
guide: B1 guide with T34G, G43A, C51T, C52G, T67A
modifications: listed as DNA, chemistry not fully specified
B34: cr060 (nucleic acid)
guide: B1 guide with T3G, T4C, C52G, T67A
modifications: listed as DNA, chemistry not fully specified
B35: cr857 (nucleic acid)
guide: B1 guide with A41T, C52G, T67A, G71C, T80C
modifications: listed as DNA, chemistry not fully specified
B36: cr849 (nucleic acid)
guide: B1 guide with G33C, T34G, C52G, T67A
modifications: listed as DNA, chemistry not fully specified
B37: cr203 (nucleic acid)
guide: B1 guide with G33C, C52T, T67A
modifications: listed as DNA, chemistry not fully specified
B38: cr753 (nucleic acid)
guide: B1 guide with G43C, C51G, C52G, A59T, T67A, T70A, C73A, G85T
modifications: listed as DNA, chemistry not fully specified

Numbering of substitutions follows the chain as printed.

One data set relates to K562 CRISPRi cells. The experiment in a line: Constant region variant library pooled growth screen, K562. It is filed as cell-based, human. The conditions noted are these: sgRNA constant region variant; activity relative to unmodified constant region cr995; mean CRISPRi activity. Summed up:
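K562 CRISPRi, duplicate transductions; puromycin 1 d 0.75 μg/mL then 1 d 0.85 μg/mL; >2000× coverage in spinner flasks; harvests at 4-8 d growth. Activity = phenotype ÷ phenotype with unmodified constant region.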
Molecule B1 registered a Mean relative activity of 0.007281.

As to B2, the Mean relative activity is 0.00638.

As to B3, the Mean relative activity was found to be 0.006975.

B4 showed a Mean relative activity of 0.006446.

B5: the Mean relative activity was determined as 0.0072.

In the case of B6, the Mean relative activity was determined as 0.006669.

Consider B7, for which the Mean relative activity amounted to 0.006595.

The molecule B8 displayed a Mean relative activity of 0.005912.

As for B9, the Mean relative activity turned out to be 0.006889.

Turning to B10, the Mean relative activity came out at 0.006802.

Take B11: the Mean relative activity was determined as 0.005923.

The molecule B12 yielded a Mean relative activity of 0.006875.

B13: the Mean relative activity is on record as 0.006799.

The molecule B14 returned a Mean relative activity of 0.00717.

B15: the Mean relative activity was determined as 0.007257.

On to B16, for which the Mean relative activity came to 0.007159.

The molecule B17 displayed a Mean relative activity of 0.006963.

B18 returned a Mean relative activity of 0.006349.

Take B19: the Mean relative activity was determined as 0.006333.

The data set is the same for the next values; noted with them: sgRNA constant region variants; activity relative to the original, un-modified constant region cr995.
B20 yielded a Mean relative activity of 0.005276.

In turn, B21 registered a Mean relative activity of 1.031.

B22 showed a Mean relative activity of 0.004917.

The molecule B23 had a Mean relative activity of 1.031.

Turning to B24, the Mean relative activity was found to be 0.004414.

Turning to B25, the Mean relative activity stood at 0.005552.

B26 yielded a Mean relative activity of 1.031.

In the case of B27, the Mean relative activity was 0.005757.

In turn, B28 gave a Mean relative activity of 0.004872.

Regarding B29, the Mean relative activity was 0.004215.

In turn, B30 came in with a Mean relative activity of 0.005045.

As for B31, the Mean relative activity turned out to be 0.004102.

B32: the Mean relative activity was 0.00451.

In turn, B33 gave a Mean relative activity of 0.004644.

Take B34: the Mean relative activity is 0.005182.

Consider B35, for which the Mean relative activity amounted to 0.004274.

Turning to B36, the Mean relative activity is reported as 0.004706.

On to B37, for which the Mean relative activity was 0.004333.

On to B38, for which the Mean relative activity came out at 0.004302.

These data come from patent US20220259593A1, “CONTROL OF MAMMALIAN GENE DOSAGE USING CRISPR” (The Regents of the University of California, priority 2019, published 2022).
